Columns and labels:
[1] = molecular target: human CD20 (Homo sapiens CD20) (Homo sapiens) (UniProt P11836); assay: cell-based or functional assay
[2] = molecular target: human CD37 (Homo sapiens CD37) (Homo sapiens) (UniProt P11049); assay: cell-based or functional assay
human CD37 (Homo sapiens CD37) (Homo sapiens), sequence (P11049 whole entry): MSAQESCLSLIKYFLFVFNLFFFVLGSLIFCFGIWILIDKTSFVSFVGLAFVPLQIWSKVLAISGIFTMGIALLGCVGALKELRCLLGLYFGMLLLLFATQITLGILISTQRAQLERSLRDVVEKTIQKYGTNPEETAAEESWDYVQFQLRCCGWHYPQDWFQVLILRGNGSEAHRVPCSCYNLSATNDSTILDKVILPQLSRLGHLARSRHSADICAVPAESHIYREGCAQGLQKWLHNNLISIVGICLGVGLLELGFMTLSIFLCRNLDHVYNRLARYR

human CD20 (Homo sapiens CD20) (Homo sapiens), sequence (P11836 whole entry): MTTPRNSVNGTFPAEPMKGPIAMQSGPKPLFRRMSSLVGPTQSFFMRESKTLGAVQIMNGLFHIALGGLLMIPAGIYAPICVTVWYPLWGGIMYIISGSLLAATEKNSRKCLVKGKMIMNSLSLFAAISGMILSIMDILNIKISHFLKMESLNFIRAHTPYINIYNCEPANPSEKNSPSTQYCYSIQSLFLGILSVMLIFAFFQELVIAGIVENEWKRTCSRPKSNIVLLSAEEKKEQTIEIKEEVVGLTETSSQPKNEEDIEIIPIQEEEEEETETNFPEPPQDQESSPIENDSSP

| ADCC reporter assay (FcγRIII-transfected Jurkat NFAT luciferase effector cells), Mean RLU, CD20/CHO target cells, Effector:Target 4:1 [1] | ADCC reporter assay (FcγRIII-transfected Jurkat NFAT luciferase effector cells), Mean RLU, CD20/CHO target cells, Effector:Target 8:1 [1] | ADCC reporter assay (FcγRIII-transfected Jurkat NFAT luciferase effector cells), Mean RLU, Raji target cells (express both hCD20 and hCD37), Effector:Target 4:1 [1] | ADCC reporter assay (FcγRIII-transfected Jurkat NFAT luciferase effector cells), Mean RLU, Raji target cells (express both hCD20 and hCD37), Effector:Target 8:1 [1] | ADCC reporter assay (FcγRIII-transfected Jurkat NFAT luciferase effector cells), Mean RLU, CD37/CHO target cells, Effector:Target 4:1 [2] | ADCC reporter assay (FcγRIII-transfected Jurkat NFAT luciferase effector cells), Mean RLU, CD37/CHO target cells, Effector:Target 8:1 [2] | Substance |
| --- | --- | --- | --- | --- | --- | --- |
| 20900 RLU | 36000 RLU | 16600 RLU | 31500 RLU | 20600 RLU | 36200 RLU | human IgG1 isotype control antibody (an anti-dinitrophenyl (anti-DNP) antibody) |
| – | – | – | – | 20500 RLU | 35900 RLU | rituximab (antibody) |

Source: patent US20240059785A1
